The target of data set [1] is adenylate kinase 2 (AK2), recombinant human (human, UniProt P54819 1-239). Kind of data set: SEC. A general note: In gel filtration, larger molecules generally elute earlier.
The data set “SEC” deals with the molecule itself. Put plainly: SEC.

B1: AIFM1 ΔR201 (disease-related variant) (domain or fragment)
chain: LGLTPEQKQKKAALSASEGEEVPQDKAPSHVPFLLIGGGTAAFAAARSIRARDPGARVLIVSEDPELPYMRPPLSKELWFSDDPNVTKTLRFKQWNGKESIYFQPPSFYVSAQDLPHIENGGVAVLTGKKVVQLDVRDNMVKLNDGSQITYEKCLIATGGTPRSLSAIDRAGAEVKSRTTLFRKIGDFRSLEKISREVKSITIIGGGFLGSELACALGRKARALGTEVIQLFPEKGNMGKILPEYLSNWTMEKVRREGVKVMPNAIVQSVGVSSGKLLIKLKDGRKVETDHIVAAVGLEPNVELAKTGGLEIDSDFGGFRVNAELQARSNIWVAGDAACFYDIKLGRRRVEHHDHAVVSGRLAGENMTGAAKPYWHQSMFWSDLGPDVGYEAIGLVDSSLPTVGVFAKATAQDNPKSATEQSGTGIRSESETESEASEITIPPSTPAVPQAPVQGEDYGKGVIFYLRDKVVVGIVLWNIFNRMPIARKIIKDGEQHEDLNEVAKLFNIHED
A word on the stoichiometry N: it is a count of units in the complex or per binding partner. As for B1, the binding result in data set [1] is “binds”. Further, in “SEC”, the “stoichiometry N” value came out at 2.

The values are drawn from paper doi:10.1101/2024.08.22.609182 (bioRxiv, 2024).
